The source of these data is publication PMC8340551 (The Journal of Cell Biology, 2021).

The test deals with T1, FHL2-Flag (UniProt Q14192 1-279).
T1 sequence (looked up): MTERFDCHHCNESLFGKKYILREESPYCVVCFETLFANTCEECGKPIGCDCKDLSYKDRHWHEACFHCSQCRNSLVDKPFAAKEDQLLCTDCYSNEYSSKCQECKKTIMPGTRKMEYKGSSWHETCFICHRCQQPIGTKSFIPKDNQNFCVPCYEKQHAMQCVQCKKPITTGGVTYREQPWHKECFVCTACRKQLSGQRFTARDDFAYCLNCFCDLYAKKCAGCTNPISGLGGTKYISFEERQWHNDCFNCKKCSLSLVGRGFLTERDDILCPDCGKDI
Description: co-IP.

B1: Myc-TRAK1 (Myc-TRAK1^WT) (natural protein, UniProt Q9UPV9 1-953, looked up)
chain: MALVFQFGQPVRAQPLPGLCHGKLIRTNACDVCNSTDLPEVEIISLLEEQLPHYKLRADTIYGYDHDDWLHTPLISPDANIDLTTEQIEETLKYFLLCAERVGQMTKTYNDIDAVTRLLEEKERDLELAARIGQSLLKKNKTLTERNELLEEQVEHIREEVSQLRHELSMKDELLQFYTSAAEESEPESVCSTPLKRNESSSSVQNYFHLDSLQKKLKDLEEENVVLRSEASQLKTETITYEEKEQQLVNDCVKELRDANVQIASISEELAKKTEDAARQQEEITHLLSQIVDLQKKAKACAVENEELVQHLGAAKDAQRQLTAELRELEDKYAECMEMLHEAQEELKNLRNKTMPNTTSRRYHSLGLFPMDSLAAEIEGTMRKELQLEEAESPDITHQKRVFETVRNINQVVKQRSLTPSPMNIPGSNQSSAMNSLLSSCVSTPRSSFYGSDIGNVVLDNKTNSIILETEAADLGNDERSKKPGTPGTPGSHDLETALRRLSLRRENYLSERRFFEEEQERKLQELAEKGELRSGSLTPTESIMSLGTHSRFSEFTGFSGMSFSSRSYLPEKLQIVKPLEGSATLHHWQQLAQPHLGGILDPRPGVVTKGFRTLDVDLDEVYCLNDFEEDDTGDHISLPRLATSTPVQHPETSAHHPGKCMSQTNSTFTFTTCRILHPSDELTRVTPSLNSAPTPACGSTSHLKSTPVATPCTPRRLSLAESFTNTRESTTTMSTSLGLVWLLKERGISAAVYDPQSWDRAGRGSLLHSYTPKMAVIPSTPPNSPMQTPTSSPPSFEFKCTSPPYDNFLASKPASSILREVREKNVRSSESQTDVSVSNLNLVDKVRRFGVAKVVNSGRAHVPTLTEEQGPLLCGPPGPAPALVPRGLVPEGLPLRCPTVTSAIGGLQLNSGIRRNRSFPTMVGSSMQMKAPVTLTSGILMGAKLSKQTSLR
modifications: O-GlcNAc on serine and threonine residues (sites not given), more with co-expressed OGT, less with co-expressed OGA
B1: the “fold more co-precipitated with OGT overexpression than with OGA overexpression” value was found to be 5 fold.
